Where two headings read alike, the source gives them in different places.
How the values were obtained:
[1] = biological target: recombinant dimeric (β15-66)2 fragment; assay: ELISA
[2] = biological target: fibrin (β15-66)2 15-66 (Homo sapiens) (UniProt P02675); assay: SPR; details: cited from earlier work
[3] = biological target: VE-cad(1-5) fragment (human); assay: SPR
[4] = biological target: VE-cad(3)His fragment (human); assay: SPR
[5] = biological target: VE-cad(3)His fragment (human); assay: SPR; remark: listed apart in the source
[6] = biological target: VE-cad(1-5) fragment (human); assay: SPR; remark: listed apart in the source
[7] = biological target: VE-cad(3)His fragment (human); assay: SPR; remark: listed apart in the source

Sequence of fibrin (β15-66)2 15-66 (Homo sapiens) (P02675 15-66): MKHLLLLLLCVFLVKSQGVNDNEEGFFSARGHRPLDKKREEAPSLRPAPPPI
Sequence of VE-cadherin VE-cad(1-4)His EC1-4 (P33151 48-477): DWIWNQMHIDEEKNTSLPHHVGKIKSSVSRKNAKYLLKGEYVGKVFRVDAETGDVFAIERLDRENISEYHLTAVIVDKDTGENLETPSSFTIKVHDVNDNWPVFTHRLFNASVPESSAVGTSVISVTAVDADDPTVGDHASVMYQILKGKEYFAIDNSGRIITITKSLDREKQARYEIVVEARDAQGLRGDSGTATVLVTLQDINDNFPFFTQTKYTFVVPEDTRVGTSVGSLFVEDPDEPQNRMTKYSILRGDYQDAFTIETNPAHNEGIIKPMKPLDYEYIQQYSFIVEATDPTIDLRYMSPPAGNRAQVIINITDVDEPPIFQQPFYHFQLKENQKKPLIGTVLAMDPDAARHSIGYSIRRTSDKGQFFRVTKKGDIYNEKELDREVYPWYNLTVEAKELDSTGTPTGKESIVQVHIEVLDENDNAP

Substance: VE-cad(2-3) fragment (domain or fragment)
- Kd [1]: 27 nM

Substance: VE-cad(2-4) fragment (domain or fragment)
- Kd [1]: 32 nM

Substance: VE-cadherin VE-cad(1-4)His EC1-4 (from UniProt P33151)
- Kd [2]: 80 nM

Substance: recombinant dimeric (β15-66)2 fragment (domain or fragment)
- Kd [3]: 82 nM
- Kd [4]: 90 nM
- Kd [5]: 89 nM
- Kd [6]: 76.7 nM
- kon [6]: 678000 M⁻¹ s⁻¹
- Kd [7]: 91 nM
- koff [7]: 0.0172 s⁻¹
- kon [7]: 189000 M⁻¹ s⁻¹

From publication PMC3307134
